For one assay, the target named is T1, ALPL (Homo sapiens, UniProt P05186).
T1 construct: expressed in transfected cells; host or cells: HEK 293T
T1 sequence (P05186 whole entry, looked up): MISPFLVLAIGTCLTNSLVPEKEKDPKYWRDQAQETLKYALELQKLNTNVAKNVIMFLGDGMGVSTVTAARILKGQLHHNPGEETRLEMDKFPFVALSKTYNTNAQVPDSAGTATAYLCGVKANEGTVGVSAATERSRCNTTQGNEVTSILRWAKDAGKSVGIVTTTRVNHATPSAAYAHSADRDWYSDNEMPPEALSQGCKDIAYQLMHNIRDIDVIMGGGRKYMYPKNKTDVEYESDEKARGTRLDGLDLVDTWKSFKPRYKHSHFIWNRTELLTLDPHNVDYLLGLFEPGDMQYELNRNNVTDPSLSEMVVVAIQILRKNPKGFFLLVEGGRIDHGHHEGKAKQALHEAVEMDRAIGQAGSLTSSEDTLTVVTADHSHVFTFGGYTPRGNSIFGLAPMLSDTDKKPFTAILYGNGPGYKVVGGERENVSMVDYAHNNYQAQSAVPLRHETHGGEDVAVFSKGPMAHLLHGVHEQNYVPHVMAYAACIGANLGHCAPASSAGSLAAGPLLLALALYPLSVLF
It counts as cell-based. Particulars: for fold increase in transduction by luciferase assay in cells expressing ALPL: relative to pCMV6 transfected cells, 24 hours post-transduction; for Luciferase Activity (RLU): Table 30, ALPL transfected cells. How it is done: (§1) Briefly, a transduction assay was performed in that HEK 293T cells were transfected via calcium phosphate transfection with a plasmid expressing ALPL, an AAVR positive control, or a pCMV6 negative control (250 ng or 500 ng of plasmid). AAVR is a universal AAV entry factor involved in AAV transduction. […] At 24-hours post-transduction, GFP expression and luciferase activity were measured to quantify and observe AAV cellular transduction. […] The TTM-002, TTM-006, TTM-018, and TTM-019 capsid variants all comprised the SPH motif immediately subsequent to position 455, numbered relative to SEQ ID NO: 138 and a positive residue in one of the next three residues subsequent to the SPH motif.
To determine if the TTM-001 and TTM-002 capsid variants could bind to both the human ALPL protein (NM_000478.6, which is incorporated by reference herein) and the mouse ALPL ortholog (NM_001287172.1, which is incorporated by reference herein), HEK 293T cells were transfected via calcium phosphate transfection with a plasmid expressing human ALPL, the murine ortholog of ALPL, or a pCMV6 negative control. At 24 hours post-transfection, the HEK 293T cells expressing the ALPL receptor were transduced with an AAV particle comprising the TTM-001 capsid variant, the TTM-002 capsid variant, or an AAV9 control capsid protein, expressing a Luc2-GFP payload. At 24-hours post-transduction, luciferase activity (RLU) was measured to quantify AAV cellular transduction.

Another assay deals with T2, AAVR (Homo sapiens, UniProt Q8IZA0).
T2 construct: expressed in transfected cells; host or cells: HEK 293T
T2 sequence (Q8IZA0 whole entry, looked up): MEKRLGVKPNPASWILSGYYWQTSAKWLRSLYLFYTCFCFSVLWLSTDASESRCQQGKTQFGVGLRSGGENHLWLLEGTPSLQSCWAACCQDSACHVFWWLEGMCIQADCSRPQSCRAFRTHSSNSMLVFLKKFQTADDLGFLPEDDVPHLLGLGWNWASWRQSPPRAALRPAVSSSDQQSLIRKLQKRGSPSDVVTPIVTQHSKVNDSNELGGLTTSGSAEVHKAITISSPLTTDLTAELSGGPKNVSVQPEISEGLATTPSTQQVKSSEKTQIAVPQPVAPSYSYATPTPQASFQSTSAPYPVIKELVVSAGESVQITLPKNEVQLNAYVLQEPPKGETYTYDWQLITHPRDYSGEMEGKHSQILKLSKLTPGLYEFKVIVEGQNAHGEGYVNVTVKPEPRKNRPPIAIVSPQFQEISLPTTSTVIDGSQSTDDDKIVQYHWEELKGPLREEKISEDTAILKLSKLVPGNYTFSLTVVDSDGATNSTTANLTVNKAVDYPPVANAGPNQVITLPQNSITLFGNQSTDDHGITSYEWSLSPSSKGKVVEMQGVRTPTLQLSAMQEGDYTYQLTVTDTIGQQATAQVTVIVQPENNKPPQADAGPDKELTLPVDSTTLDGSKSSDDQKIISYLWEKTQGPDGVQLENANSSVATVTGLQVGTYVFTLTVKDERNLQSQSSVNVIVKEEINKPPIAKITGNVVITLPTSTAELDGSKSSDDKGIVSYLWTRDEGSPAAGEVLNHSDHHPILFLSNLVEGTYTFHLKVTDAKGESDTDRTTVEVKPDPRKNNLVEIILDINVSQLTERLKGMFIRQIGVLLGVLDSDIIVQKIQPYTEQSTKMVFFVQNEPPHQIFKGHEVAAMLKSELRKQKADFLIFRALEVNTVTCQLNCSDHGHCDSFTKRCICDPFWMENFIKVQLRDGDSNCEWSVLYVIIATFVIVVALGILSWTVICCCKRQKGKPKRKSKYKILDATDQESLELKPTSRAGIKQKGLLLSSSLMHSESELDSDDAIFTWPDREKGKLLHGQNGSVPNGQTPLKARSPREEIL
The class given is cell-based. Conditions: for Luciferase Activity (fold change relative to pCMV6 transfected cells) / Luciferase Activity (RLU): AAVR transfected cells; for Fold change in luciferase activity relative to the pCMV6 control cells: Table 35, Receptor AAVR; for Luciferase Activity (RLU): Table 30. The protocol:
as §1

Read-outs that look alike come from different tables or passages of the source.

“AAV9: wild-type AAV9 control capsid [reference compound]”: the “fold increase in transduction by luciferase assay in cells expressing ALPL” value in the assay with ALPL is recorded as “not affected”. The “Luciferase Activity (fold change relative to pCMV6 transfected cells)” value with AAVR (Table 27) is on record as 4.3 fold; in the assay with AAVR (Table 28), 14 fold. Also, the “Fold change in luciferase activity relative to the pCMV6 control cells” value with AAVR was determined as 4.9 fold.

B1: TTM-001: AAV9 capsid variant comprising SPHSKA (SEQ ID NO: 941) in loop IV (protein)
chain 1: MAADGYLPDWLEDNLSEGIREWWALKPGAPQPKANQQHQDNARGLVLPGYKYLGPGNGLDKGEPVNAADAAALEHDKAYDQQLKAGDNPYLKYNHADAEFQERLKEDTSFGGNLGRAVFQAKKRLLEPLGLVEEAAKTAPGKKRPVEQSPQEPDSSAGIGKSGAQPAKKRLNFGQTGDTESVPDPQPIGEPPAAPSGVGSLTMASGGGAPVADNNEGADGVGSSSGNWHCDSQWLGDRVITTSTRTWALPTYNNHLYKQISNSTSGGSSNDNAYFGYSTPWGYFDFNRFHCHFSPRDWQRLINNNWGFRPKRLNFKLFNIQVKEVTDNNGVKTIANNLTSTVQVFTDSDYQLPYVLGSAHEGCLPPFPADVFMIPQYGYLTLNDGSQAVGRSSFYCLEYFPSQMLRTGNNFQFSYEFENVPFHSSYAHSQSLDRLMNPLIDQYLYYLSKTINGSGSPHSKAQNQQTLKFSVAGPSNMAVQGRNYIPGPSYRQQRVSTTVTQNNNSEFAWPGASSWALNGRNSLMNPGPAMASHKEGEDRFFPLSGSLIFGKQGTGRDNVDADKVMITNEEEIKTTNPVATESYGQVATNHQSAQAQAQTGWVQNQGILPGMVWQDRDVYLQGPIWAKIPHTDGNFHPSPLMGGFGMKHPPPQILIKNTPVPADPPTAFNKDKLNSFITQYSTGQVSVEIEWELQKENSKRWNPEIQYTSNYYKSNNVEFAVNTEGVYSEPRPIGTRYLTRNL
chain 2: GSGSPHSKAQNQQT
For B1, the “Luciferase Activity (RLU)” value was 93,268 RLU with ALPL and 13,981 RLU with AAVR. The “Luciferase Activity (fold change relative to pCMV6 transfected cells)” value with AAVR (Table 27) worked out at 2.4 fold.

B2: TTM-002: AAV9 capsid variant comprising HDSPHK (SEQ ID NO: 2) in loop IV (protein)
chain 1: MAADGYLPDWLEDNLSEGIREWWALKPGAPQPKANQQHQDNARGLVLPGYKYLGPGNGLDKGEPVNAADAAALEHDKAYDQQLKAGDNPYLKYNHADAEFQERLKEDTSFGGNLGRAVFQAKKRLLEPLGLVEEAAKTAPGKKRPVEQSPQEPDSSAGIGKSGAQPAKKRLNFGQTGDTESVPDPQPIGEPPAAPSGVGSLTMASGGGAPVADNNEGADGVGSSSGNWHCDSQWLGDRVITTSTRTWALPTYNNHLYKQISNSTSGGSSNDNAYFGYSTPWGYFDFNRFHCHFSPRDWQRLINNNWGFRPKRLNFKLFNIQVKEVTDNNGVKTIANNLTSTVQVFTDSDYQLPYVLGSAHEGCLPPFPADVFMIPQYGYLTLNDGSQAVGRSSFYCLEYFPSQMLRTGNNFQFSYEFENVPFHSSYAHSQSLDRLMNPLIDQYLYYLSKTINGHDSPHKSGQNQQTLKFSVAGPSNMAVQGRNYIPGPSYRQQRVSTTVTQNNNSEFAWPGASSWALNGRNSLMNPGPAMASHKEGEDRFFPLSGSLIFGKQGTGRDNVDADKVMITNEEEIKTTNPVATESYGQVATNHQSAQAQAQTGWVQNQGILPGMVWQDRDVYLQGPIWAKIPHTDGNFHPSPLMGGFGMKHPPPQILIKNTPVPADPPTAFNKDKLNSFITQYSTGQVSVEIEWELQKENSKRWNPEIQYTSNYYKSNNVEFAVNTEGVYSEPRPIGTRYLTRNL
chain 2: GHDSPHKSGQNQQT
Regarding B2, the “transduction by immunofluorescence microscopy in cells expressing ALPL” value in the assay with ALPL (GFP, compared to AAV9 control capsid) was “a significant increase in the transduction”. Further, in the assay with ALPL, the “Luciferase Activity (RLU)” value is 46,182 RLU and the “fold increase in transduction by luciferase assay in cells expressing ALPL” value amounted to 45 fold. Moreover, the “Luciferase Activity (fold change relative to pCMV6 transfected cells)” value in the assay with AAVR (Table 27) came out at 4.1 fold. In the assay with AAVR, the “Luciferase Activity (RLU)” value is recorded as 11,261 RLU and the “Fold change in luciferase activity relative to the pCMV6 control cells” value turned out to be 7.3 fold. Moreover, in the assay with AAVR (compared with ALPL expression), the “transduction in cells expressing the AAVR control” value is given as “did not result in the same increase in transduction”.
